Values of other authors in PMC8771847.

Target: Piezo1 (Mus musculus) (UniProt E2JF22)
Chain of UniProt E2JF22 (E2JF22 whole entry): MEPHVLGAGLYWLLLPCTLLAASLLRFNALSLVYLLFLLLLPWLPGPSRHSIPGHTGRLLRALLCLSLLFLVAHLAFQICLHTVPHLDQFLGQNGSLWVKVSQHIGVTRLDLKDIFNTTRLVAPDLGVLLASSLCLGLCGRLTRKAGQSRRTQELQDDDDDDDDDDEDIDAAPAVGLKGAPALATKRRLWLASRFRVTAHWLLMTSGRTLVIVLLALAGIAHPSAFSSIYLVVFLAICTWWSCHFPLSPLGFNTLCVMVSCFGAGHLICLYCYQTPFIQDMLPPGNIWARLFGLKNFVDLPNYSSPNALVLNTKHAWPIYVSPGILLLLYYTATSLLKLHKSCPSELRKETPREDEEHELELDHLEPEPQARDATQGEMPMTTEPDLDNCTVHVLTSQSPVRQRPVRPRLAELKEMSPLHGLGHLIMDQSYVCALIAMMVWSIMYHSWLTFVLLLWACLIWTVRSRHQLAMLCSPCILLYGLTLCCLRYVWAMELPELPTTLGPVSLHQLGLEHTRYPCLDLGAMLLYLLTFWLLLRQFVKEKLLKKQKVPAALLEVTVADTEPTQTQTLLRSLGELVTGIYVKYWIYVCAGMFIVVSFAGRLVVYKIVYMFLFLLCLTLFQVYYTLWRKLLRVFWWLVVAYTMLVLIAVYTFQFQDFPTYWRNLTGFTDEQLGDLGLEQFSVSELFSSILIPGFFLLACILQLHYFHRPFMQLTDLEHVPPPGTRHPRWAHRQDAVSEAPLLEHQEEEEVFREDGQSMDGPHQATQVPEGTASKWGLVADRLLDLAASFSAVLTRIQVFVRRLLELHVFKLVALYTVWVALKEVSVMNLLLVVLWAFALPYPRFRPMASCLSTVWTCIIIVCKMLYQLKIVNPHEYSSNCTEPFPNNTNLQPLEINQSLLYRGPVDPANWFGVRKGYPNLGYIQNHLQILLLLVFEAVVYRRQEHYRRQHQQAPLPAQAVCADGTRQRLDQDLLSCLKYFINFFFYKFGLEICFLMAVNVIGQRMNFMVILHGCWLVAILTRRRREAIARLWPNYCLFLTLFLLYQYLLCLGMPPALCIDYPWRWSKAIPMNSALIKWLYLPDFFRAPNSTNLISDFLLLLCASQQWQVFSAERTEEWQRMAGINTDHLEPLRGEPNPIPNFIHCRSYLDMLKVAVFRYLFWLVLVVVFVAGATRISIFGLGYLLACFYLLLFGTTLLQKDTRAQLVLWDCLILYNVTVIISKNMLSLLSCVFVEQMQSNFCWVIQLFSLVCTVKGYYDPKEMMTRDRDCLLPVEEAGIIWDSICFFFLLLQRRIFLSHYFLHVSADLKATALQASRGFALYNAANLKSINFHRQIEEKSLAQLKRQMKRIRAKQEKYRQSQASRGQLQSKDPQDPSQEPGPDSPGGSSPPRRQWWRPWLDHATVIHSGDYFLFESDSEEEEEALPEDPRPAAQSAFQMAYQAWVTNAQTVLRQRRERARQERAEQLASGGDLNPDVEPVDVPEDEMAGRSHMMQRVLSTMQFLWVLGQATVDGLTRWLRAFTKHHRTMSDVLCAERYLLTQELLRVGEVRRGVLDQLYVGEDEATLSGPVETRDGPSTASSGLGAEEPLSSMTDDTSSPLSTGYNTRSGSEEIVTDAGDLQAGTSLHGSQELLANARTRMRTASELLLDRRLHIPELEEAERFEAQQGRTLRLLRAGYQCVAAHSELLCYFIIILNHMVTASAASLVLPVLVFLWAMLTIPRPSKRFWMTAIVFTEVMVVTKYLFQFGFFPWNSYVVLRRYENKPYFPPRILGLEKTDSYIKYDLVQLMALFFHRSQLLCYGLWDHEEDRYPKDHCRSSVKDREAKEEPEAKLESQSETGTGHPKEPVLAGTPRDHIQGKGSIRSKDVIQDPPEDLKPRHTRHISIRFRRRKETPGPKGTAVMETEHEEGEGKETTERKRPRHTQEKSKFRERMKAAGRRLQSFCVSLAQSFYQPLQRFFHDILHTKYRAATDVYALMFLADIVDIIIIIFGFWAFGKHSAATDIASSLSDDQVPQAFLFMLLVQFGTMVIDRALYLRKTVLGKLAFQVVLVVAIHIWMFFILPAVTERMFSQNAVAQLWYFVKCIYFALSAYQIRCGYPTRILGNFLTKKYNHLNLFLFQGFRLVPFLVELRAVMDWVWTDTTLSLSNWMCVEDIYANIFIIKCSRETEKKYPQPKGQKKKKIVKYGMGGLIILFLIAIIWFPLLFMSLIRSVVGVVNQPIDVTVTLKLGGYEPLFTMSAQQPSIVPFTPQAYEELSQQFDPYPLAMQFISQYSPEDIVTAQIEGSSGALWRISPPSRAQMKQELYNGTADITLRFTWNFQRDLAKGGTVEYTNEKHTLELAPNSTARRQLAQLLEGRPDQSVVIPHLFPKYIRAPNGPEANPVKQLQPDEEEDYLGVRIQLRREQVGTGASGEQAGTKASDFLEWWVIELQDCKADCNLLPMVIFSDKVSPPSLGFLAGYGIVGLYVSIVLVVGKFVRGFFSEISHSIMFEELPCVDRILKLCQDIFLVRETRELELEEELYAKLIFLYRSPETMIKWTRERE

In the case of GsMTx-4 (from UniProt Q7YT39), the Kd is given as 2 µM.
